The values below come from patent US20100015126A1 (published 2010).

The target in assay [1] is T1, fibrin (immobilized, formed from fibrinogen with factor IIa) (UniProt P02671 36-629; P02675 45-491; P02679 27-437).
T1 sequence (looked up) 1: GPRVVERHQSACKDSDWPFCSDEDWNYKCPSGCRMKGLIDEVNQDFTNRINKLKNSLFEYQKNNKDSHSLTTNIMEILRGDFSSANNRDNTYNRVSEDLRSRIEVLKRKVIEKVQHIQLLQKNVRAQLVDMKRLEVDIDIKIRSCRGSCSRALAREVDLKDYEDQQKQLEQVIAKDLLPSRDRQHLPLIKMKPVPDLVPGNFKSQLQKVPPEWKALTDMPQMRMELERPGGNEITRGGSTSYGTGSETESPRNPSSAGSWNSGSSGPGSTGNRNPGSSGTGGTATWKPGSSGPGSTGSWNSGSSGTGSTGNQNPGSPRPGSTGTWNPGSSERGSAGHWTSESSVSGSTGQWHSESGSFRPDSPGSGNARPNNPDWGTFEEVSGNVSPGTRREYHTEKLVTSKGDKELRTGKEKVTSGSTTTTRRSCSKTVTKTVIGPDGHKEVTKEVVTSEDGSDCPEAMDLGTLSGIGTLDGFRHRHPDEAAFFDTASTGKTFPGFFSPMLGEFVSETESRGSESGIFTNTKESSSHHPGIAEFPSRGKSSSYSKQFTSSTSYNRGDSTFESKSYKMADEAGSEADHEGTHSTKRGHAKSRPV
T1 sequence (looked up) 2: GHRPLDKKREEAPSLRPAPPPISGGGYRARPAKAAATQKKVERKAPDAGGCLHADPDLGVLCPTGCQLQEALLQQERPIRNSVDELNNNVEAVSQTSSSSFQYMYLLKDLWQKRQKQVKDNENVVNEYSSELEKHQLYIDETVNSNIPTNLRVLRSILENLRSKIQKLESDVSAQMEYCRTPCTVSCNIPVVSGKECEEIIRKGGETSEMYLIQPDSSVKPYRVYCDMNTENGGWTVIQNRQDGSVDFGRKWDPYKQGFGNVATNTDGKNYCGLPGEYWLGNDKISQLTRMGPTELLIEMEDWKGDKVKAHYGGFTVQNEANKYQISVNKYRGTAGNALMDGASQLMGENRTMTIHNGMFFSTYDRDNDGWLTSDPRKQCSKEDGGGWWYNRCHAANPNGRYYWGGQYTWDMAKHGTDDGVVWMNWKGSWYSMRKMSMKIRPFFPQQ
T1 sequence (looked up) 3: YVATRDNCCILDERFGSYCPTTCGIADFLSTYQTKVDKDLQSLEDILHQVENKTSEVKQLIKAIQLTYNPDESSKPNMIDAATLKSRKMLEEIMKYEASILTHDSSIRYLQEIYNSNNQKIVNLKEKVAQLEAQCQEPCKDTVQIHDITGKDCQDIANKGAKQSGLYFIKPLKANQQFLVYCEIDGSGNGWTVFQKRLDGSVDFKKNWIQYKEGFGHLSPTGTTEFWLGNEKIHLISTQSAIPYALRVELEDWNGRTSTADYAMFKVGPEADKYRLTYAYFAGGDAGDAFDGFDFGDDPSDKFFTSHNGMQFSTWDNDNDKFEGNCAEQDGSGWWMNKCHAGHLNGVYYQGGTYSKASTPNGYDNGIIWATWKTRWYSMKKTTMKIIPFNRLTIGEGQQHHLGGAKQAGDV
Kind of assay: direct ELISA, fibrin formed in wells, anti-His-tag detection.

Assay [2] addresses T2, synthetic human amyloid-β(1-42) peptide (Aβ42t=0) (human).
T2 construct: also called Aβ1-42
Kind of assay: direct ELISA, coated ligand, anti-His-tag detection. (In an ELISA, binding on a coated surface is turned into a signal by an enzyme label.)

The target in assay [3] is T3, oxidized human plasma low density lipoprotein (oxLDL) with misfolded apolipoprotein B100 (human, UniProt P04114 28-4563).
T3 construct: also called oxidized LDL
T3 sequence (P04114 28-4563 limits assumed): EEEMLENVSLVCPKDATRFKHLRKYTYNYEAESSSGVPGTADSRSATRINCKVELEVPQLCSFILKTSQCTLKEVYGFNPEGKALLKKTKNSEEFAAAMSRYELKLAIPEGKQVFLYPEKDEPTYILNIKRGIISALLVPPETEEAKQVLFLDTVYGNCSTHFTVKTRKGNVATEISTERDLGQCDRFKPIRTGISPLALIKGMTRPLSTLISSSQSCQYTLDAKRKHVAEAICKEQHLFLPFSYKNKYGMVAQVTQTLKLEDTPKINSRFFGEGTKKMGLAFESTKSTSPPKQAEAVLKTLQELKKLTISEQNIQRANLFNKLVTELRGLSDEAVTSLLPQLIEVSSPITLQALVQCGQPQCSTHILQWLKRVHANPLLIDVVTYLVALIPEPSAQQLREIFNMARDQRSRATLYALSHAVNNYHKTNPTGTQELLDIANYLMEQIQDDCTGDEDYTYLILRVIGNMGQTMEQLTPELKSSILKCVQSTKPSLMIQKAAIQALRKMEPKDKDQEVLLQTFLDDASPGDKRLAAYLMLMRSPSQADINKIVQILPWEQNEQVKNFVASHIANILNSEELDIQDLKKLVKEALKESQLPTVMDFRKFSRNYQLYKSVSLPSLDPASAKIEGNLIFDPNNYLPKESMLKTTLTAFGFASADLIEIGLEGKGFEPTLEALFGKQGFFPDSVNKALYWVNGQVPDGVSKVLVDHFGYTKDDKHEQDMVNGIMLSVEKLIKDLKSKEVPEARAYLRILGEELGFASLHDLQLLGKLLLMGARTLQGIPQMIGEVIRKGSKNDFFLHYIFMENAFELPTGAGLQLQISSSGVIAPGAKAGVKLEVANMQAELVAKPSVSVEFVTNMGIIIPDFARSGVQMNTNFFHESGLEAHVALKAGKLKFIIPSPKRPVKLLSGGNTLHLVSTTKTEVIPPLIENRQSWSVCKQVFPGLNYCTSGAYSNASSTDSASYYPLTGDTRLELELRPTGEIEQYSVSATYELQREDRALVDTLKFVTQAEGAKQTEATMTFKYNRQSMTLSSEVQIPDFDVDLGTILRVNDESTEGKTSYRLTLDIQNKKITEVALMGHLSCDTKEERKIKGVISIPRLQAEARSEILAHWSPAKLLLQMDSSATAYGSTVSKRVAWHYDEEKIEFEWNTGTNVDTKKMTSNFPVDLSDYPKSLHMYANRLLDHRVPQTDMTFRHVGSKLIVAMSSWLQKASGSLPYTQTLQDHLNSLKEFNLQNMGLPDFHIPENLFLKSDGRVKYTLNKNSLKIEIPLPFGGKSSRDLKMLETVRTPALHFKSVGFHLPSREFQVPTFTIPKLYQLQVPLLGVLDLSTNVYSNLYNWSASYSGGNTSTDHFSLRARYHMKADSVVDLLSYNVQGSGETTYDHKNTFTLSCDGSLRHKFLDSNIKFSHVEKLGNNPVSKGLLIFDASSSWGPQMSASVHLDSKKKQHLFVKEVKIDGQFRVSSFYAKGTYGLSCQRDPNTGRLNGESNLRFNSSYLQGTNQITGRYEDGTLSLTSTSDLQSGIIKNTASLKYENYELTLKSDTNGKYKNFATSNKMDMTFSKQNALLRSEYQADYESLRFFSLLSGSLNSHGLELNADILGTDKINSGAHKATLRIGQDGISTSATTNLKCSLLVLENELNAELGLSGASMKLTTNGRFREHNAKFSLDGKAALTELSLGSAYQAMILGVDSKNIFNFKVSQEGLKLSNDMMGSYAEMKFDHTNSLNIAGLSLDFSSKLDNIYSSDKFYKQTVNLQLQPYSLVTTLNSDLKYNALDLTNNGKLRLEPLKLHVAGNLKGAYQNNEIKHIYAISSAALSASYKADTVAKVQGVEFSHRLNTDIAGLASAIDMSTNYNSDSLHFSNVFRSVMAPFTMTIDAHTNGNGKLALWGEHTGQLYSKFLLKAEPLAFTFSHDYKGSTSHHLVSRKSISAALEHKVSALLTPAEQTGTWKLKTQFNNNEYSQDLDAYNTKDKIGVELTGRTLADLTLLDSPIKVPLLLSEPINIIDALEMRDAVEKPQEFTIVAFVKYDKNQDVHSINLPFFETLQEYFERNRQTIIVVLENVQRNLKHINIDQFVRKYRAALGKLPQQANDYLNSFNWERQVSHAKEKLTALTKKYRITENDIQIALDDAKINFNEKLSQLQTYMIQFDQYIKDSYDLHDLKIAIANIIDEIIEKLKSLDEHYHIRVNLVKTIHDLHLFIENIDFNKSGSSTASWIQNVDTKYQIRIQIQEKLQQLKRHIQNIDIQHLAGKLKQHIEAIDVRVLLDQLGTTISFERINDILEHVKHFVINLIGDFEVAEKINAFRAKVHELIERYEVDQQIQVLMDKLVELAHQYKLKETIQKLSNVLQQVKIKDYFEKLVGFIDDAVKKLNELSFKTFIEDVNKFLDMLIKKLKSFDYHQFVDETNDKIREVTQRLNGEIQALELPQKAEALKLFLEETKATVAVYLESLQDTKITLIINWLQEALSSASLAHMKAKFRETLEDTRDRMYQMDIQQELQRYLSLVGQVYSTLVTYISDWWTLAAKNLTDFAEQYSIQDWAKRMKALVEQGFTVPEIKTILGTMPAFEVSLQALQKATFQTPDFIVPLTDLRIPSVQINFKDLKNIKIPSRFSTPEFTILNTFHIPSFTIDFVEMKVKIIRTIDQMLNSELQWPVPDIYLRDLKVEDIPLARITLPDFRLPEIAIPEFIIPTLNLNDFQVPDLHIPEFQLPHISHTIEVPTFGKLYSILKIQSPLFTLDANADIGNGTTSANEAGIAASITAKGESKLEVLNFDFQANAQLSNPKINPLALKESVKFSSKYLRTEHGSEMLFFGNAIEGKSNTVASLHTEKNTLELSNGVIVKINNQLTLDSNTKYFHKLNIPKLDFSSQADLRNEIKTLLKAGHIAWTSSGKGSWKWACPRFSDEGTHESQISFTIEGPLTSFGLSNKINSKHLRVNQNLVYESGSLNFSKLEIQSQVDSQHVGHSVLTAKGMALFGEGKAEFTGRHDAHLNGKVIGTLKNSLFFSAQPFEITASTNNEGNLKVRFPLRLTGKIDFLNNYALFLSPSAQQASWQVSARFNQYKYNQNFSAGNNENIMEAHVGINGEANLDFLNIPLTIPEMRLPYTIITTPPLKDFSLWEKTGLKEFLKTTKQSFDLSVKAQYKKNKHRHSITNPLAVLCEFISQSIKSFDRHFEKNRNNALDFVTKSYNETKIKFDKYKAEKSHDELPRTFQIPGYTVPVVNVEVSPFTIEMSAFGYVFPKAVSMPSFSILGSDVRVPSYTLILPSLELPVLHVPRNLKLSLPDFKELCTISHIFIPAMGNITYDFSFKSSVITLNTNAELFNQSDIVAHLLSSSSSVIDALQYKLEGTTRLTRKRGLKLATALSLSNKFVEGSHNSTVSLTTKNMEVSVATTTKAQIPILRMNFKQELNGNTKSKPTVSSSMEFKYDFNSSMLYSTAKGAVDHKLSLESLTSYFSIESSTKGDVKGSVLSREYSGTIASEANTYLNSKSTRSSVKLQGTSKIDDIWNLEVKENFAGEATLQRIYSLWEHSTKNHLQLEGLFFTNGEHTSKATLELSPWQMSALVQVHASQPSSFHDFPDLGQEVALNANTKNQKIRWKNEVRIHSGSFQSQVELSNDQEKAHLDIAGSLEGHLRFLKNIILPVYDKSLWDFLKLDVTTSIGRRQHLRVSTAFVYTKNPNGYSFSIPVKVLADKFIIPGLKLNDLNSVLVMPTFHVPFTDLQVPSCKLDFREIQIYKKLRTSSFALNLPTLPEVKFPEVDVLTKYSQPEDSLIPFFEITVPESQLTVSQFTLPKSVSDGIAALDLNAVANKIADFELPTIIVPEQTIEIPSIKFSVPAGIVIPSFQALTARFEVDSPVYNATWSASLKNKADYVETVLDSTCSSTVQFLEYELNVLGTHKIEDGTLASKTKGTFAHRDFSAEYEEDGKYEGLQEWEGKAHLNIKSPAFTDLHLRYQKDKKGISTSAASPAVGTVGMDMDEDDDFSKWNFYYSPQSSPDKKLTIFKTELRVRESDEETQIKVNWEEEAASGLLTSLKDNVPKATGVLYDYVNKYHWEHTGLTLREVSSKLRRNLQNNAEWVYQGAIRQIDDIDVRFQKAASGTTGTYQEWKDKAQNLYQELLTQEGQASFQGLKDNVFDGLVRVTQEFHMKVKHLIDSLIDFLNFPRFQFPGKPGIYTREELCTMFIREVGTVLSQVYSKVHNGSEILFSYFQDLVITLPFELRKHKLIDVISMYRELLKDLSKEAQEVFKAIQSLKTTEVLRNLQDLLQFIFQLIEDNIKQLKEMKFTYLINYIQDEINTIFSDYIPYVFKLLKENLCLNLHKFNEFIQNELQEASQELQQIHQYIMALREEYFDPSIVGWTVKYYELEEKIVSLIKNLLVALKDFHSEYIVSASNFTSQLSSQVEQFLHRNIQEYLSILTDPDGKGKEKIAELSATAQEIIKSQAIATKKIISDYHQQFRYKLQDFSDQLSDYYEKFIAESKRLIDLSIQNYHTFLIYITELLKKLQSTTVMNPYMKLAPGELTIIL
Kind of assay: direct ELISA, coated ligand, HSP60 concentration series.

Assay [4] deals with recombinant human HSP90beta (human, UniProt P08238 1-724). As to the kind of experiment: direct ELISA, coated ligand, HSP90 concentration series.

T2 sequence (peptide, as listed by the source limits assumed): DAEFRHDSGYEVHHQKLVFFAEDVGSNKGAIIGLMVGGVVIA

B1: recombinant human HSP60 with N-terminal His-tag (other, UniProt P10809 27-573, looked up, not shown: small tags and cut ends)
chain: AKDVKFGADARALMLQGVDLLADAVAVTMGPKGRTVIIEQSWGSPKVTKDGVTVAKSIDLKDKYKNIGAKLVQDVANNTNEEAGDGTTTATVLARSIAKEGFEKISKGANPVEIRRGVMLAVDAVIAELKKQSKPVTTPEEIAQVATISANGDKEIGNIISDAMKKVGRKGVITVKDGKTLNDELEIIEGMKFDRGYISPYFINTSKGQKCEFQDAYVLLSEKKISSIQSIVPALEIANAHRKPLVIIAEDVDGEALSTLVLNRLKVGLQVVAVKAPGFGDNRKNQLKDMAIATGGAVFGEEGLTLNLEDVQPHDLGKVGEVIVTKDDAMLLKGKGDKAQIEKRIQEIIEQLDVTTSEYEKEKLNERLAKLSDGVAVLKVGGTSDVEVNEKKDRVTDALNATRAAVEEGIVLGGGCALLRCIPALDSLTPANEDQKIGIEIIKRTLKIPAMTIAKNAGVEGSLIVEKIMQSSSEVGYDAMAGDFVNMVEKGIIDPTKVVRTALLDAAGVASLLTTAEVVVTEIPKEEKDPGMGAMGGMGGGMGGGMF
notes: mature; also called His-HSP60
Regarding B1, the binding result in assay [1] is given as “binds”; in assay [2], “binds”; in assay [3], “no binding”.

B2: heat-denatured chicken ovalbumin (dOVA standard) (other, UniProt P01012 2-386, looked up)
chain: GSIGAASMEFCFDVFKELKVHHANENIFYCPIAIMSALAMVYLGAKDSTRTQINKVVRFDKLPGFGDSIEAQCGTSVNVHSSLRDILNQITKPNDVYSFSLASRLYAEERYPILPEYLQCVKELYRGGLEPINFQTAADQARELINSWVESQTNGIIRNVLQPSSVDSQTAMVLVNAIVFKGLWEKAFKDEDTQAMPFRVTEQESKPVQMMYQIGLFRVASMASEKMKILELPFASGTMSMLVLLPDEVSGLEQLESIINFEKLTEWTSSNVMEERKIKVYLPRMKMEEKYNLTSVLMAMGITDVFSSSANLSGISSAESLKISQAVHAAHAEINEAGREVVGSAEAGVDAASVSEEFRADHPFLFCIKHIATNAVLFFGRCVSP
notes: also called dOVA std; misfolded hen ovalbumin
As to B2, the binding result in assay [4] is “no binding”.
